Test results reported in the nanobody polyreactivity screen of Harvey et al. (2022).

Assay: yeast display, Sf9 membrane polyspecificity reagent, FACS + sequencing; frameworks hold sequencing errors
Procedure, shortened: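 After 36–48 hours of galactose induction, yeast (Saccharomyces cerevisiae BJ5465) displaying a synthetic nanobody library were stained at 4 °C for 1 hour with 10% biotinylated, detergent-solubilized Sf9 membrane reagent. Streptavidin microbeads enriched the stained cells before FACS sorting into low and high (top ~1%) gates on anti-HA and streptavidin fluorescence. Each clone's polyreactivity label reflects its gate of origin.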

With “QVQLVESGGGLVQAGGSLRLSCAASGSTYRDYAKGWYRQAPGKERELVASITSGSSTYYADSLKGRFTMSRDNAKNTVYLQMNSLKPEDTAVYYCATGRQYDLHRLRHDYWGQGTQVTVSS” as the sequence, how does the “polyreactivity (PSR sort gate)” value read?
The value was “low polyreactivity”.

Which “polyreactivity (PSR sort gate)” value does the source give for “QVQLVESGGGLVQAGGSLRLSCAASGSTYRGYAMGWYRQAPGKEMELVAAISNRGTRTYYADSVKGRFTISRYNAKNTFYLQMNSLKPEDTAVYYFSAGNRVHRFDYWGQGTQVTVSS” here?
Its value is “high polyreactivity”.

With “QVQLVESGGGLVQAGGSLRLSCAASGSTYRLYAMGWYRQAPGKERELVAAITWRGTTYYADSVKGRFTISRDNAKNTVYLQMNSLKPEDTAVYYCAARAPVAGYKYRYDYWGQGTQVTVSS” as the sequence, how does the “polyreactivity (PSR sort gate)” value read?
The value was “high polyreactivity”.

For “QVQLVESGGGLVQAGGSLRLSCAASGSTYRVKAMGWYRQAPGKEREFVAAITRGGSTNYADSVKGRFTISRDNAMNTVYLQMNSLKPEDTAVYYCATAYRGRAWGYVYWGQGTQVTVSS”, which “polyreactivity (PSR sort gate)” value is on record?
The value was “high polyreactivity”.

Which “polyreactivity (PSR sort gate)” value does the source give for “QVQLVESGGGLVQAGGSLRLSCAASGSTYRYYDMGWYRQAPGKERELVAAITWSGGTTYYADSVKGRFTISRDNAKNTVYLQMNSLKPEDTAVYYCAADSVLTPYDYWGQGTQVTVSS” here?
Its value is “low polyreactivity”.

For “QVQLVESGGGLVQAGGSLRLSCAASGSTYYKYAMGTDRPAPGKERELVASSSRSGGSTSYADSVKGRFTISRDNAKNTVYLQMNSVKPEDTAVYYCAATWRQHPGSMGYWGQGTQVTVSS”, which “polyreactivity (PSR sort gate)” value is on record?
The value was “high polyreactivity”.

Which “polyreactivity (PSR sort gate)” value does the source give for “QVQLVESGGGLVQAGGSLRLSCAASGSTYYPYAMGWSRQAPGKEWQFVAAITWSGGSTYADSVKGRFTISRDNAKNTVNLQMNSLKPEDTAGYYCAAQPFVIDGGYRGDYWGQGTQETVSS” here?
Its value is “low polyreactivity”.

For “QVQLVESGGGLVQAGGSLRLSCAASGSTYYWYMGWYRQAPGKERELVAAITSGGRTYYADSVKGRFTISRDNAKNTVYLQMNSLKPEDTAVYYCARPYSRAYDYWGQGTQVTVSS”, which “polyreactivity (PSR sort gate)” value is on record?
Its value is “high polyreactivity”.

Which “polyreactivity (PSR sort gate)” value does the source give for “QVQLVESGGGLVQAGGSLRLSCAASGSTYYYNAMGSYRQAPGKDRELVARISRSGGSTYADSVKGRFTISRDNAKNTVYLQMNSLKPEDTAVYYCNADAYGTPEFTSYAVRYDYWGQGTQVTVSS” here?
The value was “low polyreactivity”.

Which “polyreactivity (PSR sort gate)” value does the source give for “QVQLVESGGGLVQAGGSLRLSCAASGSTYYYYMGWYRQAPGKERELVASISYTGSRTYYADSVKGRFTISRDNAKNTVYLQMNSLKPEDTAVYYCAAARSRARSYYYWGQGTQVTVSS” here?
The value was “high polyreactivity”.

With “QVQLVESGGGLVQAGGSLRLSCAASGSYTMGWYRQAPGKERELVAAISKSGGSTYYADSVKGRFTISRDNAKNTVYLQMNRLKPEDTAVYYCAAVGWWGTYDYWGQGTQVTVSS” as the sequence, how does the “polyreactivity (PSR sort gate)” value read?
The value was “high polyreactivity”.

With “QVQLVESGGGLVQAGGSLRLSCAASGTFAGNAIGWYRQAPGKERELVAAINSGGSTNYADSVKGRFTISRDNAKNTVYLQMNSLKPEDTAVYYCAADSVWSPVDYDYWGQGSQVTVSS” as the sequence, how does the “polyreactivity (PSR sort gate)” value read?
Its value is “low polyreactivity”.

For “QVQLVESGGGLVQAGGSLRLSCAASGTFGGYAMGWYRQAPGKERELVARIRRNGGSTYYADSVKGRFTISRDTAKNTVYLQMNSLKPEDTAVYYCATDQLSLSSYFRPYDYGYWGQGTQVTVSS”, which “polyreactivity (PSR sort gate)” value is on record?
Its value is “high polyreactivity”.

For “QVQLVESGGGLVQAGGSLRLSCAASGTFIGYAMGWYRQAPGKERELVAAIDVSGGSTYYADSVKGRFTISRDNAKNTVYLQMNSLKPEDTAVYYCATDRGPEVVLYDYWGHGTQVTVSS”, which “polyreactivity (PSR sort gate)” value is on record?
Its value is “low polyreactivity”.

With “QVQLVESGGGLVQAGGSLRLSCAASGTFRRYTMGWYRQAPGKERELVAAITSSGGTYYADSVKGRFTISRDNAKNTVYLQMNSLKPEDTAVYYCAARDYWSRYFRPGIVGWHDYWGQGTQVTVSS” as the sequence, how does the “polyreactivity (PSR sort gate)” value read?
Its value is “high polyreactivity”.

For “QVQLVESGGGLVQAGGSLRLSCAASGTFTVNTMGWSRQAPGKERELVAAISTGDTTTYADSVKGRFTISRDNAKNTVYLQMNSLKPEDTAVYYCNAVAKLYYWRYDYWGQGTQVTVSS”, which “polyreactivity (PSR sort gate)” value is on record?
The value was “low polyreactivity”.

With “QVQLVESGGGLVQAGGSLRLSCAASGTFVLSAMGWYRPAPGKERELVAAISKTGRTYYADSVKGRFTISRDNAKNTVYLQMNSLKPEDTSVYYCAAQRFSKFGYWGQGTQVTVSS” as the sequence, how does the “polyreactivity (PSR sort gate)” value read?
The value was “high polyreactivity”.

With “QVQLVESGGGLVQAGGSLRLSCAASGTFWGYAMGWYRQAPGKERELVAAISASGASTSYADSVKGRFTISRDNAKNTVYLQMNSLKPEDTAVYYCDARRNTAYGYWGQGTQVTVSS” as the sequence, how does the “polyreactivity (PSR sort gate)” value read?
The value was “high polyreactivity”.

Which “polyreactivity (PSR sort gate)” value does the source give for “QVQLVESGGGLVQAGGSLRLSCAASGTFYTNAMGWYRPAPGKERELVAAITSGGSTYYADSVKGRFTISRDNAKNTVYLQMNSLKPEDTAVYYCAADPVSHGYDIDYDYWGQGTQVTVSS” here?
The value was “low polyreactivity”.

For “QVQLVESGGGLVQAGGSLRLSCAASGTFYYYAMGWYRPAPGKERELVAAIDYSGGSTYYADSVKGRFTISRDNAKNTVYLQMNSLKPEDTAVYYCAYVSVYDFEYWGQGTQVTVSS”, which “polyreactivity (PSR sort gate)” value is on record?
The value was “high polyreactivity”.

For “QVQLVESGGGLVQAGGSLRLSCAASGTIFDSYAKVWYRQAPGKERELVAAISSSVGSTYYADSVKGRFTISRDNAKNTVYLQMNSLKPEDTAVYYCNADEYWASGYDPYDYWGQGTQVTVSS”, which “polyreactivity (PSR sort gate)” value is on record?
Its value is “low polyreactivity”.

Which “polyreactivity (PSR sort gate)” value does the source give for “QVQLVESGGGLVQAGGSLRLSCAASGTIFFPNAMGWYREAPGKERELVAAISWSGDSTYADSVKGRFTISRDNAKNTVYLQMNSLKPQDTAVYYCAAVYLWWSYEFDYWGQGTQVTVSS” here?
Its value is “low polyreactivity”.

For “QVQLVESGGGLVQAGGSLRLSCAASGTIFQQYAMGWYRQAPGKERELVAAISYSGGTTYYADSVKGRFTISRDNAKNTDYLEMNSLKPEDTAVYYCAAYYPSGSYDYYWGQGTQVTVSS”, which “polyreactivity (PSR sort gate)” value is on record?
Its value is “low polyreactivity”.

Which “polyreactivity (PSR sort gate)” value does the source give for “QVQLVESGGGLVQAGGSLRLSCAASGTIFVPYAMGWYRQAPGKERELVAVITSGGSTYYADSVKGRFTISRDNAKNTVYLQMNSLKPEDTAVYYCNADLYYVWSTLSQFDYWGQGTQVTVSS” here?
Its value is “low polyreactivity”.

Which “polyreactivity (PSR sort gate)” value does the source give for “QVQLVESGGGLVQAGGSLRLSCAASGTIFYDNAMGWYRQAPAKERELVASIRWSGDSTYYADSVKGRFTISRDNAKNTVYLQMISLKPEDTAVYYCAADPVEPYFTAIAYDYWGQGTQVTVSS” here?
Its value is “low polyreactivity”.

With “QVQLVESGGGLVQAGGSLRLSCAASGTTFAYYAMGWYRQAPGKERELVAVISVRGGSTYYADSVKGRFTISRDNAKNTVYLQMNSLKPEDTAVYYCAADTFAGYYYWGQGTQVTVSS” as the sequence, how does the “polyreactivity (PSR sort gate)” value read?
The value was “high polyreactivity”.

Which “polyreactivity (PSR sort gate)” value does the source give for “QVQLVESGGGLVQAGGSLRLSCAASGTTFPRYAMGWYRQAPGKERELVAAISSGGSTYYADSVKGRFTISRDNAKNTVYLQMNRLKPEDTAVYYCNARRSRSRYDYWGQGTQVTVSS” here?
Its value is “high polyreactivity”.

Which “polyreactivity (PSR sort gate)” value does the source give for “QVQLVESGGGLVQAGGSLRLSCAASGTTFSPNAMGWYRQAPGKERELVAAITGGGSTYADSVKGRFTISRDNAKNTVYLQMNSLKPEDTAVYYCNADSYSFPYYYWGQGTQVTVSS” here?
The value was “low polyreactivity”.

Which “polyreactivity (PSR sort gate)” value does the source give for “QVQLVESGGGLVQAGGSLRLSCAASGTTFTFNAMGWYRQAPGKEREFVAAITASGGRTYYADSVKGRFTISRDNAKNTVYLQMNSLKPEDTAVYYCAAHACLLGPGDFNYWGQGTQVTVSS” here?
Its value is “low polyreactivity”.

With “QVQLVESGGGLVQAGGSLRLSCAASGTTFVKNDMGWYRQAPGKERELVAAISGGSTNYADSVKGRFTISRDNAKNTVYLQMNSLKPEDTAVYYCAAVQWYTSIEGIQPYYYWGQGTQVTVSS” as the sequence, how does the “polyreactivity (PSR sort gate)” value read?
Its value is “low polyreactivity”.
